Data on 167 variants can be found in the RNAGym collection of RNA variant scans (doi:10.1073/pnas.2313332121).

B1: TPR t1 (parent)
chain: GACCAAUCUGCCCUCAGAGCUCGAGAACAUCUUCGGAUGCAGAGGAGGCAGGCUUCGGUGGCGCGAUAGCGCCAACGUCCUCAACCUCCAAUGCAUCCCACCACAUGAUGAUGCCUGAAGAGCCUUGGUUUUUUG

In the series the parent is B1. Briefly: polymerase ribozyme fitness, log enrichment relative to wild type (log ratio); higher = more active; in vitro selection for triplet polymerase activity. In outline:
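PCR was used to build mutant libraries for each subunit of a heterodimeric triplet polymerase ribozyme, which were then transcribed. A single in vitro selection round, in triplicate, used a frozen incubation at −7 °C and recovered extended constructs by gel excision, streptavidin beads and RT-PCR. Fitness is the logarithm of genotype enrichment relative to wild-type enrichment, averaged over replicates with inverse-variance weights. The logarithm is base 2, and after Illumina sequencing only genotypes with ≥10 input reads and ≥1 read per output were kept.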
In the case of G71U C115U, the “polymerase ribozyme fitness (log ratio)” value was -1.41.
In the case of A2C G71U it was -2.08.
In the case of G51A G120U it was -2.59.
With U59C U81G the figure was -3.51; with U9C C49A C85U G120C, 1.08; with C101A C114A, -2.19.
C3G A41C: the “polymerase ribozyme fitness (log ratio)” value was -3.54.
In the case of C86G U126C it was -1.74.
With U54A U81G G120A the figure was -3.57.
Regarding C3U A29C G61U, the “polymerase ribozyme fitness (log ratio)” value is -2.81.
With C73A A111C the figure was 0.669.
In the case of G71U U132C it was -0.492.
With C12U U14G C15G G61A C88U U129C the figure was -1.38; with C31U G69U C73U A100U, -3.8; with C40A C73U G128U, -3.11.
C64A U112G: the “polymerase ribozyme fitness (log ratio)” value was -6.64.
In the case of C11U C49U it was -1.29; in that of A46C C89U, -0.611.
In the case of C13U C15A G60A G113C G135U it was -7.27.
In the case of C115U A118U it was -1.41; in that of A16U C62U, -1.92; in that of C3A G61U C115A, -1.78.
On to U9A G10U G44U G60A C89G G127C, for which the “polymerase ribozyme fitness (log ratio)” value was -2.63.
With A43G G69C A90C C124G the figure was -0.889.
In the case of C12A A26U G36A G48C C72U it was -4.02; in that of A68U A111C, -7.12.
With C40G C56U C70A G77A C88U A103U A119G the figure was -7.04; with G10A C104U, -0.557.
For the variant U9A G23A G25C A43C G51A A68G U106A C123U, the “polymerase ribozyme fitness (log ratio)” value is -6.69.
In the case of U92A G128U it was -4.84.
Regarding G48A C70A C86G G107C G110U, the “polymerase ribozyme fitness (log ratio)” value was -5.84.
With A84U G128C the figure was -2.56; with G110A A121U, 0.16.
With C72U G93A the figure was -0.542.
With C72U G93U the figure was -1.56.
With A6G U96A C102A U129A, the “polymerase ribozyme fitness (log ratio)” value is -5.24.
With G36A G63A C94U U132A the figure was -1.7.
With C11A C73U C76A U78G U131A the figure was -4.06; with U78C U81G G120C, -1.18; with C3G C22A C124G G128C, -3.09.
With C64A C115U the figure was -5.54; with U9G U14A G52C, -0.345; with G69A C114G, -4.69.
With C53G C86A A118G, the “polymerase ribozyme fitness (log ratio)” value was -1.38.
C3U G17C G117U: the “polymerase ribozyme fitness (log ratio)” value is -6.24.
In the case of C12G G63U A66G U109A A119U G127U it was -5.43.
With C101G the figure was -1.66; with G25A, -4.68; with G10A C76G G120A, 1.28.
In the case of C12A C70A U92A it was -5.67; in that of A6C A29U G52U C53U G63U G120A C123U, -3.79; in that of G51A G57C U59C U96G U106A A118G, -5.28.
Take U81G C104U G122A: the “polymerase ribozyme fitness (log ratio)” value was -4.33.
With C104A C114G the figure was -3.81; with G17C G35A C98U G120A, -5.26.
On to C80U A103C, for which the “polymerase ribozyme fitness (log ratio)” value was -6.57.
Regarding C12G C28G A37U C72U G110U, the “polymerase ribozyme fitness (log ratio)” value is -0.76.
With G63U G93U C124G the figure was -0.616; with C4U C101G, -2.06.
In the case of G19A G60C A75U A90C C98U C114A it was -3.78; in that of C49A A68G A90U, -6.08.
With G63U C97U U112C A121C, the “polymerase ribozyme fitness (log ratio)” value came to 0.0312.
In the case of G69U U112A, the “polymerase ribozyme fitness (log ratio)” value came to 1.84.
In the case of C12U G35A G42U U112C it was -5.14.
With U54A U87A G117U the figure was -2.44; with C8G C11G C56A C62G C85U, -4.61.
With C53U C80U U81C G120A the figure was -3.73.
U7A A27U G48U U87C G120U: the “polymerase ribozyme fitness (log ratio)” value was -2.16.
In the case of G10C G71A U81C A100U it was -3.62; in that of C56A C80U G120C C123G, -0.961.
With A68G C101G the figure was -3.93.
Consider G25A G93A, for which the “polymerase ribozyme fitness (log ratio)” value was -6.22.
In the case of A41C C70U C85U, the “polymerase ribozyme fitness (log ratio)” value was -2.92.
In the case of A6U A84U G110U it was -1.45.
In the case of U7C C62U it was -1.11.
In the case of G35A C114G it was -5.64; in that of A6G C15U C49A C53A G71U U78A, -0.614.
C11U U129A: the “polymerase ribozyme fitness (log ratio)” value was -2.36.
A6U G57C G63A A90G: the “polymerase ribozyme fitness (log ratio)” value is -0.878.
In the case of G48U C56A U92A it was -4.35; in that of A50G U116A, -3.15; in that of A2G U9G U21C G128A, -4.35.
For G69U G117C, the “polymerase ribozyme fitness (log ratio)” value is -2.27.
With G69A U81A C86G the figure was -4.96; with G52U C56U C62U U130A, -1.37.
In the case of G10U C86A C102U it was -2.34; in that of A29U C76G C86A, -2.31.
As to C4U G57A G61A, the “polymerase ribozyme fitness (log ratio)” value is -0.861.
In the case of A43U G71U A91G it was -2.96; in that of G45C C62A, -2.24.
In the case of U32C U54C G71C A95C it was -3.01; in that of G71A U81G A83U C124A, -7.19.
With A26C G61A U96A the figure was -5.9.
For A5C C53A G71U C98U U112A G120U, the “polymerase ribozyme fitness (log ratio)” value is -6.47.
With C8U C40U G60A C82A G120U the figure was 1.65; with A26G C62A C82U, -3.78; with A2U C62U, -2.96.
With A29U G69U G120U the figure was -0.561.
With G23C G45C G51U G71C G120C the figure was -6.31.
On to G47U G48A, for which the “polymerase ribozyme fitness (log ratio)” value was determined as 0.823.
In the case of A2G C8G C70G it was -2.83; in that of U9A C72G, -0.0842; in that of G44C U59G C80A, -4.66.
With C11G C15G G63C A68U C80U C115G G127C G135C, the “polymerase ribozyme fitness (log ratio)” value is -5.08.
In the case of C11G C22U it was -2.75; in that of U9G G63C G71U C79A, -5.4; in that of C28G C72A C102G G107A, -7.59.
With C3G G10A U106A the figure was -2.9.
With G60U A111G U126A the figure was -1.33; with A29U G48C G113C U129A, -4.71.
For A41C G107C G117A, the “polymerase ribozyme fitness (log ratio)” value was -6.25.
In the case of C70U C97A it was -4.6.
Turning to C40U G52A, the “polymerase ribozyme fitness (log ratio)” value was -0.72.
Turning to C11U G128A, the “polymerase ribozyme fitness (log ratio)” value is -2.45.
Take C56A G127U U129A U130C: the “polymerase ribozyme fitness (log ratio)” value was -1.7.
With C8U C12G G69C the figure was -1.06.
In the case of A18C A37C G127U U129A it was -3.43; in that of C79A U87C G113U, -4.71; in that of A43U G48A C56U, -1.58.
With A18U the figure was -2.13; with C8A G47U U78A A83C C98G U112A, -7.02.
On to G60A G93U, for which the “polymerase ribozyme fitness (log ratio)” value is -1.61.
In the case of G42C U133G it was -1.65.
With A46U C56A C72G G93A G120A C123U the figure was -4.15.
With A46U C62U A91U A103G U106A C114U U131G the figure was -6.47.
C12A C62U G128U: the “polymerase ribozyme fitness (log ratio)” value was -3.03.
In the case of U9A C31U G44U G52U A111U it was -5.37; in that of C13G A37U C53A C79A U87C U129C, -5.34.
As to G35C G61C C64A C123G, the “polymerase ribozyme fitness (log ratio)” value is -6.08.
In the case of C13U C20U C72A C76A it was -2.68; in that of A46C C56A G110U, -2.45.
In the case of G44A G48C A74U it was -2.22; in that of G23U A37G C94G, -6.35; in that of C12U G44U, -0.985.
A66C A84C C123U U133G: the “polymerase ribozyme fitness (log ratio)” value was -0.245.
In the case of U14G C73G C82A it was -3.08; in that of C12A G45U C56U G93A, -2.57.
With G57A C76A A105C the figure was -4.35; with U14G U38G, -3.56.
As for C20U C70U, the “polymerase ribozyme fitness (log ratio)” value is -1.7.
Take U112A A119G: the “polymerase ribozyme fitness (log ratio)” value is 1.9.
As for G19C G63C A111G C115G, the “polymerase ribozyme fitness (log ratio)” value was -5.11.
In the case of C8A C22U G57C A75U C97U C102G it was -6.66.
In the case of A27U G47U it was -2.07; in that of G19U A119G G128A, -3.71; in that of C73U U109C, -3.63.
In the case of C40G C86U A100U it was -3.33; in that of C12U A16U A66C A105C C124G, -5.31.
For the variant U9C G69U G71U U92A, the “polymerase ribozyme fitness (log ratio)” value is -3.04.
With G17A A43U G120A the figure was -3.38; with A43U C62A, -2.39; with C4G G71A, -1.72.
In the case of U87C C94A it was -0.939; in that of G69C G120C, -0.251.
With C8A C12A G39A the figure was -0.403; with U78C U87A, 1.12; with G39U G57A C80A, -2.91.
Take U32C A46G U109A: the “polymerase ribozyme fitness (log ratio)” value is -3.86.
With U9C A68G the figure was -2.42.
With G61C U92A C98U C101U U106A U112G G120C the figure was -7.61; with C62A U131A, -0.5.
As to U9A G107U G117C, the “polymerase ribozyme fitness (log ratio)” value is -6.35.
In the case of G35C C73A it was -5.42; in that of C12A C40U C82G U96C C97U, -6.18.
With G44A G60A A74U the figure was -0.926; with G42U U130A, -1.76.
With C20A C40G the figure was -4.64.
